The results in this text go back to US20220289795, “EFFICIENT METHOD FOR PREPARING PPR PROTEIN AND USE OF THE SAME” (EditForce, Inc., published 2022).

Holding throughout (assay): ELONA; RPB-ELISA
In general terms: An ELISA detects its analyte on a solid surface through an enzyme-linked reagent.

Series [1] deals with T1, NL_v2_PPR18 (Artificial Sequence).
T1 chain: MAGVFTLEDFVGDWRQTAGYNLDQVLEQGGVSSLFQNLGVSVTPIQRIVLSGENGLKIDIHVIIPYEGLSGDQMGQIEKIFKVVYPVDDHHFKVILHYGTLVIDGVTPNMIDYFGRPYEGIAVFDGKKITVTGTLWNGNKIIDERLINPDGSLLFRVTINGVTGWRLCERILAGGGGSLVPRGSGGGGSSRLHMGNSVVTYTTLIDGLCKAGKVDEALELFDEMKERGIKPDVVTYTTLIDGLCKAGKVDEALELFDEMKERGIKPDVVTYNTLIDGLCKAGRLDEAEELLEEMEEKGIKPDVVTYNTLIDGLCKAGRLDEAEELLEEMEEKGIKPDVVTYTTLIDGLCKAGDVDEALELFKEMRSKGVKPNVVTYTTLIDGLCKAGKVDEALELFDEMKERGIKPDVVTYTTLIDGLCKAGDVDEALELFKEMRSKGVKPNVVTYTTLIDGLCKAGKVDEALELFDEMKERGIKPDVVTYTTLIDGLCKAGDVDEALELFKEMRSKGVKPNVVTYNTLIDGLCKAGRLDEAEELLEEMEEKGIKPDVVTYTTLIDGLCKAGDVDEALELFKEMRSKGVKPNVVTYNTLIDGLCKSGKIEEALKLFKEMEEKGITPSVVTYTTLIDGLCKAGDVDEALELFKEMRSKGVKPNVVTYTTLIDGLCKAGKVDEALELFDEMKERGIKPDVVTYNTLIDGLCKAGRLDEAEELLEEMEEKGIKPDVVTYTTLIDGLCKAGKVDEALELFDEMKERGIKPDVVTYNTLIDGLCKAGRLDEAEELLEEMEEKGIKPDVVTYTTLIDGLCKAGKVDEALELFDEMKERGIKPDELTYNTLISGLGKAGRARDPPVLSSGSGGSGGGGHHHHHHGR
Particulars: tags: N-term luciferase, C-term 6xHis; label: 5'-biotin.

Series [2] has as its target T2, v3.1_PPR18 (Artificial Sequence).
T2 chain: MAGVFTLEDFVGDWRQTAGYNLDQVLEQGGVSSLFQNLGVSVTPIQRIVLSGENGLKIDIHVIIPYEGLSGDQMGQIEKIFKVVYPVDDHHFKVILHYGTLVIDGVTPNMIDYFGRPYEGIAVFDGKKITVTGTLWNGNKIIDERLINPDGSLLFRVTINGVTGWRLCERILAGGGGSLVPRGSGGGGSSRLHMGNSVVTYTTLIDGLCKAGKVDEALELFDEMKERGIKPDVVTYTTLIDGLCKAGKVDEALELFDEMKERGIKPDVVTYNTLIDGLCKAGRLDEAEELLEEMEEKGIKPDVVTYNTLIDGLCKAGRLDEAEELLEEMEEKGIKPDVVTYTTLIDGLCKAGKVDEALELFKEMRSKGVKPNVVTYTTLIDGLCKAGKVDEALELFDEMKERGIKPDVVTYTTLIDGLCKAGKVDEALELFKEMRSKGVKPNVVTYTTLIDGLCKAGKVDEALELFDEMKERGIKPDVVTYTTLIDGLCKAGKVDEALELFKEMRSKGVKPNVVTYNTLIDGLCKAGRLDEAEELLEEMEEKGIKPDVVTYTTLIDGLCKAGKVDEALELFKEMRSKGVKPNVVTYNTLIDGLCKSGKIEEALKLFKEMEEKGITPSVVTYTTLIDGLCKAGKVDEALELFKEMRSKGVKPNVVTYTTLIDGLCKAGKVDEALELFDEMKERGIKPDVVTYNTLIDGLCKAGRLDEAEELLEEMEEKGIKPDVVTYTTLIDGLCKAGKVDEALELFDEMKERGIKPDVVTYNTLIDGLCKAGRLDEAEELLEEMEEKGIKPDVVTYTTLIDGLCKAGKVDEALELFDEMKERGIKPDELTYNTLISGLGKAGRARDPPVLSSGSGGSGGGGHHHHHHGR
Particulars: tags: luciferase fusion; label: 5'-biotin.

In series [3] the target is T3, v3.1_PPR16 (Artificial Sequence).
T3 chain: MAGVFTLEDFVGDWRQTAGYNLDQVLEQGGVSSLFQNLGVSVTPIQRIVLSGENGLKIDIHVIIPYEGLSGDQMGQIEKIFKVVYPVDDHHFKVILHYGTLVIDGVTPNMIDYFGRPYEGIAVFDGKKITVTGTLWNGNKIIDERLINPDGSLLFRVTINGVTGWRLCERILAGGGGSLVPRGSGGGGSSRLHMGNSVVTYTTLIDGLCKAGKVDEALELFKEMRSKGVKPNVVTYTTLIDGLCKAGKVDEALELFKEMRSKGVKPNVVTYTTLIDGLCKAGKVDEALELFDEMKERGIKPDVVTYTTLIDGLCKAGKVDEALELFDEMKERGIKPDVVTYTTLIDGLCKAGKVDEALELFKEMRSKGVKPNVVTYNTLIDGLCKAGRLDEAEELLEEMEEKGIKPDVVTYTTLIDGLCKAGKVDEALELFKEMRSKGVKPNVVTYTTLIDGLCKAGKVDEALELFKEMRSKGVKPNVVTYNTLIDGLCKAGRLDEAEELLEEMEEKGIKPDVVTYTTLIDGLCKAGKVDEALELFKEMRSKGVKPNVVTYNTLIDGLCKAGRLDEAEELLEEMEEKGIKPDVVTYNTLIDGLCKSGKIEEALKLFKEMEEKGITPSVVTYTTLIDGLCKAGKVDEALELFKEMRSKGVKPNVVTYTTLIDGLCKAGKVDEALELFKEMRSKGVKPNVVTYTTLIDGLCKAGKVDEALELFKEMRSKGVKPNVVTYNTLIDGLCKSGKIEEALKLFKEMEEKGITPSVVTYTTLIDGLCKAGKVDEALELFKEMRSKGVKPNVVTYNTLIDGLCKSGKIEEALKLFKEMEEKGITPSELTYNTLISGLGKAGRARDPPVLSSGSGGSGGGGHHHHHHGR
Particulars: tags: luciferase fusion; label: 5'-biotin.

Series [4] has as its target T4, NL_v2_PPR16 (Artificial Sequence).
T4 chain: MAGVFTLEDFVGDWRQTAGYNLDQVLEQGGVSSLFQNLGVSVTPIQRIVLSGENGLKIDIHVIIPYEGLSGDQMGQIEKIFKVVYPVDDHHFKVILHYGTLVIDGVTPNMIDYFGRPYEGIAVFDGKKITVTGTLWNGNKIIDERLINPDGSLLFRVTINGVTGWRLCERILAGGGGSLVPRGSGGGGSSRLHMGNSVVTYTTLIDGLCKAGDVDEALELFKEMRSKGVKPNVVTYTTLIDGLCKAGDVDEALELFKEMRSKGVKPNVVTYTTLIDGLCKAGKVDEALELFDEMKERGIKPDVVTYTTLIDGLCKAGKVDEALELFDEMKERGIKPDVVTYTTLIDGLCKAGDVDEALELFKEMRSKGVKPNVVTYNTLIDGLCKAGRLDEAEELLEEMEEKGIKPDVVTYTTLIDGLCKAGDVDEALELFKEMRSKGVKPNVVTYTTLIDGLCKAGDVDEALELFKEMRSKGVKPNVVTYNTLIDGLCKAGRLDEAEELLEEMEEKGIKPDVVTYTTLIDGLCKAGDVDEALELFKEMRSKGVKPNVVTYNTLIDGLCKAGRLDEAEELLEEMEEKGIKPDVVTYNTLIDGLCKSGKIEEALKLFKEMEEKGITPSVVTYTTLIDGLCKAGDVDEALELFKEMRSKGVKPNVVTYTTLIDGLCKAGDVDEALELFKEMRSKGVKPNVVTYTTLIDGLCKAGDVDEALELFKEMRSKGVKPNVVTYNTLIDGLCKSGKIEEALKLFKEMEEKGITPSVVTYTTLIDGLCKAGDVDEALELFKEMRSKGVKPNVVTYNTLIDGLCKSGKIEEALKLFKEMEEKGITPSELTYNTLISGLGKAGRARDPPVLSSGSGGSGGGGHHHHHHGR
Particulars: tags: N-term luciferase, C-term 6xHis; label: 5'-biotin.

The target of series [5] is T5, v3.1_PPR17 (Artificial Sequence).
T5 chain: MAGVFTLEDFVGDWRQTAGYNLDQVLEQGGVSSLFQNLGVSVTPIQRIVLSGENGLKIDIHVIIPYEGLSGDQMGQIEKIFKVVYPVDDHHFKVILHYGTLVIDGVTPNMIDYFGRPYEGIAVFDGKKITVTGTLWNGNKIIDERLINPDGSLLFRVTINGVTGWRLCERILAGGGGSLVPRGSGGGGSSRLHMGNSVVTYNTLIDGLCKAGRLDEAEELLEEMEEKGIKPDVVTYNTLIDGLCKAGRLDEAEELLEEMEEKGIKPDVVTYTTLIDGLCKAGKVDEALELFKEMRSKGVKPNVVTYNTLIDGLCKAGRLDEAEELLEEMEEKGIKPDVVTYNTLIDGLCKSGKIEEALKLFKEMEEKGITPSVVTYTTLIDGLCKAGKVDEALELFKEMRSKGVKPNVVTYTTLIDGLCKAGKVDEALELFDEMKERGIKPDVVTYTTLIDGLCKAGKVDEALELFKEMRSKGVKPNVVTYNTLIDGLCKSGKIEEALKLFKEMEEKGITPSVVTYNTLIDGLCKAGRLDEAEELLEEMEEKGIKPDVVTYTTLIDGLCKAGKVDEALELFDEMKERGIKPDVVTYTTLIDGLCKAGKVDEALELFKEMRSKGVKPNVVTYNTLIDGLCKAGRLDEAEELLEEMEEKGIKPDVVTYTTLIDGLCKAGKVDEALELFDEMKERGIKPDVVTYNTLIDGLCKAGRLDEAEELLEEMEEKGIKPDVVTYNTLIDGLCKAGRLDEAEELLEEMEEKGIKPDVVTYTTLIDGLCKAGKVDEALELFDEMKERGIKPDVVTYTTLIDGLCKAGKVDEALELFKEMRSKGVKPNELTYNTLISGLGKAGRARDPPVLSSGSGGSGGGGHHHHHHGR
Particulars: tags: luciferase fusion; label: 5'-biotin.

As to GACAUGCGGUUAGAGAUACAGUGUGGACUG (ssRNA) [RNA_18], the binding signal worked out at 1.1e+07 luminescence in series [1] and 2.9e+07 luminescence in series [2]. Take GACAUGCAAGGAUAAUAUCAAACACGACUG (ssRNA) [RNA_16]: the binding signal in series [3] came out at 6.3e+07 luminescence; in series [4], 2.8e+07 luminescence.

In turn, GACAUGCUUAUCAGACUGAUGUUGAGACUG (ssRNA) [RNA_17] registered a binding signal in series [5] of 3.3e+07 luminescence.
